Consider 1 substance from PMC4190666.

The target of the assay is TAB1 (full length, 60-kDa isoform) (human (endogenous in primary CD4+ T cells)) (UniProt Q15750). Description: co-IP.
UniProt Q15750, sequence (Q15750 whole entry, canonical isoform): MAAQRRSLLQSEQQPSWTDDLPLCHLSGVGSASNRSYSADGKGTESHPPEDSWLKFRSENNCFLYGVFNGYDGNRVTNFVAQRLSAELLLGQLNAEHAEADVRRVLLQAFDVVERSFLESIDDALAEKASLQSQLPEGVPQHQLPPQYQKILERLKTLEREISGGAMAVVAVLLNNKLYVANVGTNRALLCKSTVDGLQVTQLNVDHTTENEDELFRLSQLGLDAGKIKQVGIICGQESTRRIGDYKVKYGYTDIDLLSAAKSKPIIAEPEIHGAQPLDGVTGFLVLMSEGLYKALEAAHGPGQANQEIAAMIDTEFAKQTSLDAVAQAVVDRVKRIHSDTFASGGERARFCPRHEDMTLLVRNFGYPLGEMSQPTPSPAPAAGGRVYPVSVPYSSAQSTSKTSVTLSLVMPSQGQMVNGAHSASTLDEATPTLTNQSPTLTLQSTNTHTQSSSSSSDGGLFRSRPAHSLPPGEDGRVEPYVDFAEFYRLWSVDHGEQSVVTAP

For the substance “p38 MAP kinase (total p38) (from UniProt Q16539 1-360) (enzyme)”, the fold increase of p38 in TAB1 immunoprecipitates with A-769662 over DMSO control was 2.5 to 3 fold.
